Reference: paper PMC5821389, “Fluorescent single-stranded DNA-binding protein from Plasmodium falciparum as a biosensor for single-stranded DNA”

B1: dT70 (ssDNA)
DNA: TTTTTTTTTTTTTTTTTTTTTTTTTTTTTTTTTTTTTTTTTTTTTTTTTTTTTTTTTTTTTTTTTTTTTT

How the values were obtained:
[1] = target: T1, DCC-PfSSB (wild-type PfSSB labeled with IDCC) (Plasmodium falciparum, UniProt Q8I415 77-284); test: fluorescence titration; high salt, 250 nM protein; two dT35 per tetramer; kon 109 uM-1s-1; High salt buffer (composition not in material) or low salt buffer (20 mM NaCl); pH and temperature not in material; details: protein: recombinant; tags: DCC (diethylaminocoumarin) at C93; chain copies: 4; single strand; two copies per tetramer at saturation
[2] = target: T1, DCC-PfSSB (wild-type PfSSB labeled with …); test: fluorescence titration; high salt, 125 pM DCC-PfSSB; single titration; High salt buffer (composition not in material) or low salt buffer (20 mM NaCl); pH and temperature not in material; details: protein: recombinant; tags: DCC (diethylaminocoumarin) at C93; chain copies: 4; single strand
[3] = target: PfSSB wild type, 5-IATR labeled (Plasmodium falciparum, UniProt Q8I415 77-284); test: fluorescence change; high salt; High salt buffer (composition not in material) or low salt buffer (20 mM NaCl); pH and temperature not in material; details: protein: recombinant; tags: tetramethylrhodamine (5-IATR) at C93; chain copies: 4; single strand
[4] = target: T1, DCC-PfSSB (wild-type PfSSB labeled with …); test: as above; details: protein: recombinant; tags: DCC (diethylaminocoumarin) at C93; chain copies: 4; single strand
[5] = target: PfSSB C93A W166C, 5-IATR labeled (Plasmodium falciparum, UniProt Q8I415 77-284, C93A;W166C); test: as above; details: protein: recombinant; tags: tetramethylrhodamine (5-IATR) at C166; chain copies: 4; single strand
[6] = target: PfSSB C93A G103C, 6-IATR labeled (Plasmodium falciparum, UniProt Q8I415 77-284, C93A;G103C); test: as above; details: protein: recombinant; tags: tetramethylrhodamine (6-IATR) at C103; chain copies: 4; single strand
[7] = target: PfSSB Y156R, IDCC labeled (Plasmodium falciparum, UniProt Q8I415 77-284, Y156R); test: as above; details: protein: recombinant; tags: DCC at C93; chain copies: 4; single strand
[8] = target: PfSSB C93A G102C, IDCC labeled (Plasmodium falciparum, UniProt Q8I415 77-284, C93A;G102C); test: as above; details: protein: recombinant; tags: DCC at C102; chain copies: 4; single strand
[9] = target: PfSSB C93A G103C, IDCC labeled (Plasmodium falciparum, UniProt Q8I415 77-284, C93A;G103C); test: as above; details: protein: recombinant; tags: DCC at C103; chain copies: 4; single strand
[10] = target: T2, PfSSB wild type, unlabeled (Plasmodium falciparum, UniProt Q8I415 77-284); test: competition; calculated from DCC-PfSSB Kd and 25-fold ratio; high salt; High salt buffer (composition not in material) or low salt buffer (20 mM NaCl); pH and temperature not in material; details: protein: recombinant; chain copies: 4; single strand
[11] = target: T1, DCC-PfSSB (wild-type PfSSB labeled with …); test: stopped-flow kinetics (koff/kon); high salt (salt inferred); High salt buffer (composition not in material) or low salt buffer (20 mM NaCl); pH and temperature not in material; details: protein: recombinant; tags: DCC (diethylaminocoumarin) at C93; chain copies: 4; single strand
[12] = target: T1, DCC-PfSSB (wild-type PfSSB labeled with …); test: stopped-flow kinetics (koff 0.014 s-1 / kon 199 uM-1s-1); low salt, 20 mM NaCl; koff by wtSSB displacement; High salt buffer (composition not in material) or low salt buffer (20 mM NaCl); pH and temperature not in material; details: protein: recombinant; tags: DCC (diethylaminocoumarin) at C93; chain copies: 4; single strand
[13] = target: T2, PfSSB wild type, unlabeled; test: competition; high salt, equimolar labeled and unlabeled PfSSB; High salt buffer (composition not in material) or low salt buffer (20 mM NaCl); pH and temperature not in material; details: protein: recombinant; chain copies: 4; single strand

| Binder | binding result [1] | Kd [2] [pM] | binding signal [3] | binding signal [4] | binding signal [5] | binding signal [6] | binding signal [7] | binding signal [8] | binding signal [9] | Kd [10] [pM] | Kd [11] [pM] | Kd [12] [nM] | binding signal [13] |
| --- | --- | --- | --- | --- | --- | --- | --- | --- | --- | --- | --- | --- | --- |
| TTTTTTTTTTTTTTTTTTTTTTTTTTTTTTTTTTT (ssDNA) [dT35] | binds | – | – | – | – | – | – | – | – | – | – | – | – |
| B1 | – | 1.2 ± 0.5 | 9.1 ± 0.2 fluorescence ratio +/- dT70 | 20.1 ± 0.1 fluorescence ratio +/- dT70 | 12.8 ± 0.5 fluorescence ratio +/- dT70 | 3.5 ± 0.4 fluorescence ratio +/- dT70 | 12.3 ± 0.07 fluorescence ratio +/- dT70 | 1.8 ± 0.09 fluorescence ratio +/- dT70 | 3.5 ± 0.08 fluorescence ratio +/- dT70 | < 0.2 | < 4.6 | 0.07 | > 25 fold tighter than DCC-PfSSB |
